Test [1] concerns the target T1, CD3 expressed on cell-surface of primary human T cells (human, UniProt P07766 23-207; P04234 22-171).
T1 construct: also called cell-surface CD3; human CD3
Kind of test: flow cytometry on PBMCs, % anti-huIgG+ CD8+ cells, donor hu 151. (A flow cytometer gives signals particle by particle.)
Procedure: (§1) Briefly, PBMCs from healthy human donors and healthy rhesus or cynomolgus monkey donors were incubated with different concentrations of HIV×CD3 bispecific molecules for 1 hour at RT. […] Cells were then washed, fixed/permeabilized, and analyzed on BD LSRFortessa. The percentage of α-huIgG-APC-positive CD4+ and CD8+ T cells and the mFI of the α-huIgG-APC of CD4+ and CD8+ cells were collected, and data analyzed using GraphPad Prism.

Test [2] concerns the target CD3 on rhesus monkey T cells in PBMCs (rhesus monkey). Kind of test: flow cytometry on PBMCs, % anti-huIgG+ CD8+ cells, donor rh 3563.
Test [3] deals with T1, CD3 expressed on cell-surface of …. Kind of test: flow cytometry on PBMCs, % anti-huIgG+ CD8+ cells, donor hu 340.
Procedure: as §1
In test [4] the target is CD3 on rhesus monkey T cells in PBMCs (rhesus monkey). Kind of test: flow cytometry on PBMCs, % anti-huIgG+ CD4+ cells, donor rh 3483.
For test [5] the target is unchanged. Kind of test: flow cytometry on PBMCs, % anti-huIgG+ CD4+ cells, donor rh 3563.
Test [6] addresses T1, CD3 expressed on cell-surface of …. Kind of test: flow cytometry on PBMCs, % anti-huIgG+ CD4+ cells, donor hu 340.
Procedure: as §1
Test [7] has the same target. Kind of test: flow cytometry on PBMCs, % anti-huIgG+ CD4+ cells, donor hu 151.
For test [8], the target named is CD3 on rhesus monkey T cells in PBMCs (rhesus monkey). Kind of test: flow cytometry on PBMCs, % anti-huIgG+ CD8+ cells, donor rh 3483.
In test [9] the target is T2, MabSelect SuRe (engineered Protein A).
T2 construct: also called MabSelect SuRe column
Kind of test: 500 ml Expi293 expression, MabSelect SuRe capture and cation exchange; purified homodimer yield relative to parent.
Procedure: 500 ml of Expi293 cells were transfected with 0.5 mg DNA encoding selected huSP34 scFv-Fc Protein A knockout variants according to manufacturer's protocol. Four days post transfection, the cell-free clarified supernatant was collected and loaded to a MabSelect™ SuRe™ (Cytiva Life Sciences) column. Afterwards the column was washed with a low salt buffer of 25 mM Tris HCl pH 7.5, 25 mM NaCl for 10 column volumes (CV), then high salt wash of 25 mM Tris HCl pH 7.5, 500 mM NaCl for 5CV to remove non-specific binding, and finally washed with a low salt wash of 25 mM Tris HCl pH 7.5, 25 mM NaCl for 10CV. To elute the antibody, an isocratic elution step of 100 mM sodium acetate pH 3.7 was performed. The eluted pool was neutralized to pH 6.0 with 1 M Tris HCl pH 9.0, and subjected to a cation ion purification, HiTrap SP HP (Cytiva Life Sciences) to further remove impurities. The cation captured protein was washed with 10 mM sodium phosphate pH 7.0 for 10CV, then eluted in 0-30% gradient of 10 mM sodium phosphate pH 7.0, 1M NaCl for 50CV to separate the desired two targeting arm antibody (heterodimer) from the one targeted arm antibody (homodimer). Followed with gradient elution from 30-100% of 10 mM sodium phosphate pH 7.0, 1 M NaCl for 10CV to remove aggregation or homodimer in higher isoelectric point (pI). All proteins were formulated into 20 mM histidine pH 5.8 by dialysis, added additive of sucrose/tween-80, sterile filtered, and stored at 4° C. Concentration of the formulated protein was measured by A280. Purity was assessed as percent monodispersed by analytical size-exclusion chromatography. Identity of the bispecific antibody was determined by Mass Spec (MS).

T1 sequence (P07766 23-207 limits assumed, chain 1 of 2): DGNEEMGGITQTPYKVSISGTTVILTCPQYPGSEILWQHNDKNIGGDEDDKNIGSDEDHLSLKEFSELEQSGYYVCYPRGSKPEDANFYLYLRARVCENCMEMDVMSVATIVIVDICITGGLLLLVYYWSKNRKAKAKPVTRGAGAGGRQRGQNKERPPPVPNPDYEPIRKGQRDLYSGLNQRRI
T1 sequence (P04234 22-171 limits assumed, chain 2 of 2): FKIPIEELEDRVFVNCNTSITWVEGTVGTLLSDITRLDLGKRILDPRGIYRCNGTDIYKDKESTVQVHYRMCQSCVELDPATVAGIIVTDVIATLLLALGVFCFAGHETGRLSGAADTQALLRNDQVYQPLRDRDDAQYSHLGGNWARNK
CD3 on rhesus monkey T cells in PBMCs (rhesus monkey), sequence (P16003 26-458): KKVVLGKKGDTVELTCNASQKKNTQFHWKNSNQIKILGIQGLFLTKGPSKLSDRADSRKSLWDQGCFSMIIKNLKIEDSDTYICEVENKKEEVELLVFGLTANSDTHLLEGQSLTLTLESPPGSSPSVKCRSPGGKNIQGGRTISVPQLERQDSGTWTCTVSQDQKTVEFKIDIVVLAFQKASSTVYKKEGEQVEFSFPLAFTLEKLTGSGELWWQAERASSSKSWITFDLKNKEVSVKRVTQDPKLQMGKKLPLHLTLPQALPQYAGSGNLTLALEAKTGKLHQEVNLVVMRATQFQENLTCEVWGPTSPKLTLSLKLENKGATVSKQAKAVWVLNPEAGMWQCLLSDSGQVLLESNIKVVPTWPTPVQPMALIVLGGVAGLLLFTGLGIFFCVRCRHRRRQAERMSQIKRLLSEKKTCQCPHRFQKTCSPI

B1: hPGT121.66 AAS + W/huSP34.34.11 scFv AAS + SAV + R (bispecific antibody, human IgG1, lambda, L234A L235A)
chain: EVQLVESGGGLVQPGGSLRLSCAASGFTFNTYAMNWVRQAPGKGLEWVGRIRSKYNNYATYYAASVKGRFTISRDDSKNSLYLQMNSLKTEDTAMYYCVRHGNFGHSYVSWFAYWGQGTLVTVSSGGGGSGGGGSGGGGSGGGGSQAVVTQEPSLTVSPGGTVTLTCGSSTGAVTTGHYANWVQQKPGQAPRGLIGGTNKRAPGVPARFSGSLLGGKAALTLSGAQPEDEAEYYCALWYSNLWVFGGGTKLTVLEPKSSDKTHTCPPCPAPEAAGGPSVFLFPPKPKDTLMISRTPEVTCVVVDVSHEDPEVKFNWYVDGVEVHNAKTKPREEQYNSTYRVVSVLTVLHQDWLNGKEYKCKVSNKALPASIEKTISKAKGQPREPQVYTLPPSREEMTKNQVSLSCAVKGFYPSDIAVEWESNGQPENNYKTTPPVLDSDGSFFLVSKLTVDKSRWQQGNVFSCSVMHEALHNRYTQKSLSLSPGK
heavy: QMQLQESGPGLVKPSETLSLTCSVSGASISDSYWSWIRRSPGKGLEWIGYVHKSGDTNYNPSLKSRVHLSLDTSKNQVSLSLTGVTAADSGKYYCARTLHGRRIYGIVAFNEWFTYFYMDVWGTGTQVTVSSASTKGPSVFPLAPSSKSTSGGTAALGCLVKDYFPEPVTVSWNSGALTSGVHTFPAVLQSSGLYSLSSVVTVPSSSLGTQTYICNVNHKPSNTKVDKKVEPKSCDKTHTCPPCPAPEAAGGPSVFLFPPKPKDTLMISRTPEVTCVVVDVSHEDPEVKFNWYVDGVEVHNAKTKPREEQYNSTYRVVSVLTVLHQDWLNGKEYKCKVSNKALPASIEKTISKAKGQPREPQVYTLPPSREEMTKNQVSLWCLVKGFYPSDIAVEWESNGQPENNYKTTPPVLDSDGSFFLYSKLTVDKSRWQQGNVFSCSVMHEALHNHYTQKSLSLSPGK
light: not shown
On to B1, for which the EC50 in [1] was determined as 0.1 µg/mL; in test [2], 0.22 µg/mL; in [3] it was 0.13 µg/mL; in [4], 0.06 µg/mL; in test [5] it was 0.07 µg/mL; in [6], 0.09 µg/mL. The EC50 in [7] was determined as 0.08 µg/mL; in test [8], 0.11 µg/mL.

B2: huSP34.27.8 scFv AAS + SAV + R (Fc fusion)
chain: EVQLVESGGGLVQPGGSLSLSCAASGFTFSTYAMNWVRQAPGKGLEWVGRIRSKYNNYAEYYAASVKGRFTISRDDSKNTLYLQMNSLRTEDTAVYYCVRHGNFGHSYVSWFAYWGQGTLVTVSSGGGGSGGGGSGGGGSGGGGSQAVVTQEPSLTVSPGGTVTLTCGSSTGAVTTGHYANWVQQKPGQAPRGLIGGTNKRAPGVPARFSGSLLGGKAALTISGAQPEDEAEYYCALWYSNRWVFGGGTKLTVLEPKSSDKTHTCPPCPAPEAAGGPSVFLFPPKPKDTLMISRTPEVTCVVVDVSHEDPEVKFNWYVDGVEVHNAKTKPREEQYNSTYRVVSVLTVLHQDWLNGKEYKCKVSNKALPASIEKTISKAKGQPREPQVYTLPPSREEMTKNQVSLSCAVKGFYPSDIAVEWESNGQPENNYKTTPPVLDSDGSFFLVSKLTVDKSRWQQGNVFSCSVMHEALHNRYTQKSLSLSPGK
notes: also called R19S, T57E; R19S + T57E
In the case of B2, in test [9], the “scFv-Fc Homodimer Yield Relative to WT (e.g. Protein A binding)” value (“scFv-Fc Homodimer Yield Relative to WT” for short) came to 8%.

B3: huSP34.14.8 scFv AAS + SAV + R (Fc fusion)
chain: EVQLVESGGGLVQPGGSLSLSCAASGFTFSTYAMNWVRQAPGKGLEWVGRIRSKYNNYATYYAASVKGRFTISRDDSKNTLYLQMNSLRTEDTAVYYCVRHGNFGHSYVSWFAYWGQGTLVTVSSGGGGSGGGGSGGGGSGGGGSQAVVTQEPSLTVSPGGTVTLTCGSSTGAVTTGHYANWVQQKPGQAPRGLIGGTNKRAPGVPARFSGSLLGGKAALTISGAQPEDEAEYYCALWYSNRWVFGGGTKLTVLEPKSSDKTHTCPPCPAPEAAGGPSVFLFPPKPKDTLMISRTPEVTCVVVDVSHEDPEVKFNWYVDGVEVHNAKTKPREEQYNSTYRVVSVLTVLHQDWLNGKEYKCKVSNKALPASIEKTISKAKGQPREPQVYTLPPSREEMTKNQVSLSCAVKGFYPSDIAVEWESNGQPENNYKTTPPVLDSDGSFFLVSKLTVDKSRWQQGNVFSCSVMHEALHNRYTQKSLSLSPGK
notes: also called R19S
On to B3, for which the “scFv-Fc Homodimer Yield Relative to WT” value in test [9] was 21%.

B4: huSP34.25.8 scFv AAS + SAV + R (Fc fusion)
chain: EVQLVESGGGLVQPGGSLRLSCAASGFTFSTYAMNWVRQAPGKGLEWVGRIRSKYNNYAAYYAASVKSRFTISRDDSKNTLYLQMNSLRTEDTAVYYCVRHGNFGHSYVSWFAYWGQGTLVTVSSGGGGSGGGGSGGGGSGGGGSQAVVTQEPSLTVSPGGTVTLTCGSSTGAVTTGHYANWVQQKPGQAPRGLIGGTNKRAPGVPARFSGSLLGGKAALTISGAQPEDEAEYYCALWYSNRWVFGGGTKLTVLEPKSSDKTHTCPPCPAPEAAGGPSVFLFPPKPKDTLMISRTPEVTCVVVDVSHEDPEVKFNWYVDGVEVHNAKTKPREEQYNSTYRVVSVLTVLHQDWLNGKEYKCKVSNKALPASIEKTISKAKGQPREPQVYTLPPSREEMTKNQVSLSCAVKGFYPSDIAVEWESNGQPENNYKTTPPVLDSDGSFFLVSKLTVDKSRWQQGNVFSCSVMHEALHNRYTQKSLSLSPGK
notes: also called T57A, G65S; T57A + G65S
In the case of B4, the “scFv-Fc Homodimer Yield Relative to WT” value in [9] amounted to 1%.

B5: huSP34.19.8 scFv AAS + SAV + R (Fc fusion)
chain: EVQLVESGGGLVQPGGSLRLSCAASGFTFSTYAMNWVRQAPGKGLEWVGRIRSKYNNYATYYAASVKGRFTISRDDSKNTLYLEMNSLRTEDTAVYYCVRHGNFGHSYVSWFAYWGQGTLVTVSSGGGGSGGGGSGGGGSGGGGSQAVVTQEPSLTVSPGGTVTLTCGSSTGAVTTGHYANWVQQKPGQAPRGLIGGTNKRAPGVPARFSGSLLGGKAALTISGAQPEDEAEYYCALWYSNRWVFGGGTKLTVLEPKSSDKTHTCPPCPAPEAAGGPSVFLFPPKPKDTLMISRTPEVTCVVVDVSHEDPEVKFNWYVDGVEVHNAKTKPREEQYNSTYRVVSVLTVLHQDWLNGKEYKCKVSNKALPASIEKTISKAKGQPREPQVYTLPPSREEMTKNQVSLSCAVKGFYPSDIAVEWESNGQPENNYKTTPPVLDSDGSFFLVSKLTVDKSRWQQGNVFSCSVMHEALHNRYTQKSLSLSPGK
notes: also called Q81E
On to B5, for which the “scFv-Fc Homodimer Yield Relative to WT” value in test [9] was determined as 86%.

B6: huSP34.26.8 scFv AAS + SAV + R (Fc fusion)
chain: EVQLVESGGGLVQPGGSLSLSCAASGFTFSTYAMNWVRQAPGKGLEWVGRIRSKYNNYAAYYAASVKGRFTISRDDSKNTLYLQMNSLRTEDTAVYYCVRHGNFGHSYVSWFAYWGQGTLVTVSSGGGGSGGGGSGGGGSGGGGSQAVVTQEPSLTVSPGGTVTLTCGSSTGAVTTGHYANWVQQKPGQAPRGLIGGTNKRAPGVPARFSGSLLGGKAALTISGAQPEDEAEYYCALWYSNRWVFGGGTKLTVLEPKSSDKTHTCPPCPAPEAAGGPSVFLFPPKPKDTLMISRTPEVTCVVVDVSHEDPEVKFNWYVDGVEVHNAKTKPREEQYNSTYRVVSVLTVLHQDWLNGKEYKCKVSNKALPASIEKTISKAKGQPREPQVYTLPPSREEMTKNQVSLSCAVKGFYPSDIAVEWESNGQPENNYKTTPPVLDSDGSFFLVSKLTVDKSRWQQGNVFSCSVMHEALHNRYTQKSLSLSPGK
notes: also called R19S, T57A; R19S + T57A
Take B6: the “scFv-Fc Homodimer Yield Relative to WT” value in test [9] came to 8%.

B7: huSP34.28.8 scFv AAS + SAV + R (Fc fusion)
chain: EVQLVESGGGLVQPGGSLSLSCAASGFTFSTYAMNWVRQAPGKGLEWVGRIRSKYNNYATYYAASVKSRFTISRDDSKNTLYLQMNSLRTEDTAVYYCVRHGNFGHSYVSWFAYWGQGTLVTVSSGGGGSGGGGSGGGGSGGGGSQAVVTQEPSLTVSPGGTVTLTCGSSTGAVTTGHYANWVQQKPGQAPRGLIGGTNKRAPGVPARFSGSLLGGKAALTISGAQPEDEAEYYCALWYSNRWVFGGGTKLTVLEPKSSDKTHTCPPCPAPEAAGGPSVFLFPPKPKDTLMISRTPEVTCVVVDVSHEDPEVKFNWYVDGVEVHNAKTKPREEQYNSTYRVVSVLTVLHQDWLNGKEYKCKVSNKALPASIEKTISKAKGQPREPQVYTLPPSREEMTKNQVSLSCAVKGFYPSDIAVEWESNGQPENNYKTTPPVLDSDGSFFLVSKLTVDKSRWQQGNVFSCSVMHEALHNRYTQKSLSLSPGK
notes: also called R19S, G65S; R19S + G65S
For the molecule B7, in test [9], the “scFv-Fc Homodimer Yield Relative to WT” value worked out at 1.5%.

B8: hPGT121.66 AAS + W/huSP34.34.12scFv AAS + SAV + R (bispecific antibody, human IgG1, lambda, L234A L235A)
chain: EVQLVESGGGLVQPGGSLRLSCAASGFTFNTYAMNWVRQAPGKGLEWVGRIRSKYNNYATYYAASVKGRFTISRDDSKNSLYLQMNSLKTEDTAMYYCVRHGNFGHSYVSWFAYWGQGTLVTVSSGGGGSGGGGSGGGGSGGGGSQAVVTQPPSLTVSPGGTVTLTCGSSTGAVTTGHYANWVQQKPGQAPRGLIGGTNKRAPWTPARFSGSLSGGKAALTISGAQPEDEAEYYCALWYSNRWVFGGGTKLTVLEPKSSDKTHTCPPCPAPEAAGGPSVFLFPPKPKDTLMISRTPEVTCVVVDVSHEDPEVKFNWYVDGVEVHNAKTKPREEQYNSTYRVVSVLTVLHQDWLNGKEYKCKVSNKALPASIEKTISKAKGQPREPQVYTLPPSREEMTKNQVSLSCAVKGFYPSDIAVEWESNGQPENNYKTTPPVLDSDGSFFLVSKLTVDKSRWQQGNVFSCSVMHEALHNRYTQKSLSLSPGK
heavy: QMQLQESGPGLVKPSETLSLTCSVSGASISDSYWSWIRRSPGKGLEWIGYVHKSGDTNYNPSLKSRVHLSLDTSKNQVSLSLTGVTAADSGKYYCARTLHGRRIYGIVAFNEWFTYFYMDVWGTGTQVTVSSASTKGPSVFPLAPSSKSTSGGTAALGCLVKDYFPEPVTVSWNSGALTSGVHTFPAVLQSSGLYSLSSVVTVPSSSLGTQTYICNVNHKPSNTKVDKKVEPKSCDKTHTCPPCPAPEAAGGPSVFLFPPKPKDTLMISRTPEVTCVVVDVSHEDPEVKFNWYVDGVEVHNAKTKPREEQYNSTYRVVSVLTVLHQDWLNGKEYKCKVSNKALPASIEKTISKAKGQPREPQVYTLPPSREEMTKNQVSLWCLVKGFYPSDIAVEWESNGQPENNYKTTPPVLDSDGSFFLYSKLTVDKSRWQQGNVFSCSVMHEALHNHYTQKSLSLSPGK
light: not shown
For B8, the concentration for a half-maximal effect (EC50) worked out at 0.85 µg/mL in test [1]; 1.24 µg/mL in test [2]; 0.88 µg/mL in test [3]; 0.46 µg/mL in [4]; 0.68 µg/mL in test [5]; 0.57 µg/mL in test [6]. The EC50 in [7] worked out at 0.51 µg/mL; in [8], 0.93 µg/mL.

What is called EC50 is the midpoint of the concentration-response curve.

Values taken from patent US20230056252A1 (Gilead, published 2023).
